These results are taken from publication doi:10.1101/829150.

This test has as its target Chicken gizzard actin (chicken) (UniProt P63270). In words: nanopore sensing.

In the case of “Chicken gizzard actin (from UniProt P63270 1-376) (natural protein)”, the filamentous fraction, initial was found to be 17% and the filamentous fraction, maximum is 75%.
